B1: F11 IgA1 polymer (antibody, V domains shown)
VH: QVQLVQSGAEVKRPGSSVRVSCRTSGGSFTSFAISWVRQAPGQGLEWMGRITRILGVPNYAQKFQGRVTITADMPTTTAYLDLTNLRSEDTAVYYCARDSGTSHGDFDYWGQGTLVTVSS
VL: EIVLTQSPVTLSLSPGERATLSCRASQNVINSLVWYQQKPGQAPRLLIYGASNRATGIPARFRGSGSGTDFTLTIDSLEPEDIAVYYCQQRGTWLWSFGQGTKVEIK
B2: F11 IgA2m2 monomer (antibody, V domains shown)
VH: B1 VH
VL: B1 VL
B3: F11 IgA2m2 polymer (antibody, V domains shown)
VH: B1 VH
VL: B1 VL
B4: F11 IgA1 monomer (antibody, V domains shown)
VH: B1 VH
VL: B1 VL

Molecular target: recombinant trimeric HA of A/New Caledonia/20/1999 (H1N1) (Influenza A virus A/New …, UniProt Q6WG00)
Assay: cell-based or functional assay

Binder	HI activity, minimum HI concentration, NC20 virus [µg/mL]	NI activity, EC50 (NI-ELLA), NC20 virus [µg/mL]	NT activity, minimum virus-neutralizing concentration, NC20 virus [µg/mL]
B1	62.5	0.106	15.8
B2	31.3	0.0617	–
B3	–	0.0162	5.57
B4	62.5	0.148	28.1

From article PMC7790537 (PLoS ONE, 2021)
